Assay results as given in publication PMC13648279.

How the values were obtained:
[1] = target: MbTEC^PH (R28E) (Monosiga brevicollis MX1); assay: FP; conditions: domain or fragment
[2] = target: MbTEC^PH (PH domain of Monosiga brevicollis TEC, residues 1-174), labelled with Atto488 (Monosiga brevicollis MX1); assay: fluorescence polarisation; fluorescence anisotropy; MbTEC^32K constructs serially diluted into 200 nM Atto488-labelled PH domain; 20 mM HEPES pH 7.4, 150 mM NaCl, 2% glycerol, 1 mM TCEP; 21 °C; one-site binding model
[3] = target: MbTEC^PH (R28E) (Monosiga brevicollis MX1); assay: as above
[4] = target: MbTEC^PH (PH domain of Monosiga brevicollis TEC, residues 1-174), labelled with Atto488; assay: fluorescence anisotropy; conditions: parent: 4.0 ± 1.3 µM

How did the Kd [1] turn out when “MbTEC^32K (SH3-SH2-kinase module of Monosiga brevicollis TEC, residues 229-667)” was run?
The Kd was 22.4 µM.

What does the source list for “MbTEC^32K (SH3-SH2-kinase module of Monosiga brevicollis TEC, residues 229-667) (domain or fragment)”?
Kd [2]: 4 µM; fold weakening of binding against wild-type MbTEC^PH [3]: 5 fold

Which Kd [4] does the source give for “MbTEC^32K (SH3-SH2-kinase module of Monosiga brevicollis TEC, residues 229-667) Y579D; R581E” here?
The Kd was 195 µM.
